Measurements from PMC9424912.
pKd: −log10 of the molar value.

Molecular target: soluble CD8αα (human)
Assay: SPR

Substance	pKd
HLA-A*02:01-NLV monomer (WT) (from UniProt P61769 21-119) (peptide-MHC)	3.64
soluble MR1-β2m-Ac-6-FP monomer (WT) (from UniProt Q95460 23-292; P61769 21-119) (complex)	3.75
